Measurements: the supplement of paper PMC7877785
± gives the uncertainty stated by the source.

Test: self-splicing fitness, log relative to wild type (ln ratio); higher = more splicing; Tetrahymena group I intron in knt gene, E. coli kanamycin selection, DiMSum; sequences stand for … in CUCUCU…GGAGGGAAAAGUUAUCAGGCAUGCACCUGGUAGCUAGUCUUUAAACCAAUAGAUUGCAUCGGUUUAAAAGGCAAGACCGUCAAAUUGCGGGAAAGGGGUCAACAGCCGUUCAGUACCAAGUCUCAGGGGAAACUUUGAGAUGGCCUUGCAAAGGGUAUGGUAAUAAGCUGACGGACAUGGUCCUAACCACGCAGCCAAGUCCUAAGUCAACAGAUCUUCUGUUGAUAUGGAUGCAGUUCACAGACUAAAUGUCGGUCGGGGAAGAUGUAUUCUUCUCAUAAGAUAUAGUCGGACCUCUCCUUAAUGGGAGCUAGCGGAUGAAGUGAUGCAACACUGGAGCCGCUGGGAACUAAUUUGUAUGCGAAAGUAUAUUGAUUAGUUUUGGAGUACUCGUGGUCG
How it was run: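 Pooled colonies went to amplicon sequencing on an Illumina HiSeq 2500 after six replicate transformations. The plates were LB agar with 100 μg/mL carbenicillin, 50 μM IPTG and 0.2% rhamnose, with or without 25 μg/mL kanamycin, incubated overnight at 37°C or 30°C. The E. coli BL21(DE3) library had all eight P1ex-region intron nucleotides randomised, the intron placed in the knt kanamycin-resistance gene on pET-22b(+). DiMSum fitness is the error-weighted combination of replicate fold changes, kanamycin against none, normalised to wild type.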

Sequence | self-splicing fitness (ln) (30 °C) | self-splicing fitness (ln) (37 °C)
CUAGAGCAAUAUUACGGCUC | -2.94 ± 0.25 | –
CUAGAGCAAUAUUACGGGGC | -3.9 ± 0.33 | -2.31 ± 0.3
CUAGAGCAAUAUUACGUAAU | -3.79 ± 0.2 | -2.22 ± 0.23
CUAGAGCAAUAUUACGUGCU | -3.54 ± 0.28 | -0.493 ± 0.15
CUAGAGCAAUAUUACGUGUC | -4.02 ± 0.3 | -2.88 ± 0.26
CUAGAGCAAUAUUACGUUAU | -3.29 ± 0.16 | -2.3 ± 0.23
CUAUAGCAAUAUUACGAAAG | -1.84 ± 0.1 | -1.01 ± 0.12
CUAUAGCAAUAUUACGAACA | -2.76 ± 0.19 | -2.49 ± 0.2
CUAUAGCAAUAUUACGAAGA | -3.01 ± 0.25 | –
CUAUAGCAAUAUUACGAAGU | -3.32 ± 0.25 | -1.93 ± 0.28
CUAUAGCAAUAUUACGAGUA | -2.86 ± 0.41 | -1.62 ± 0.23
CUAUAGCAAUAUUACGAUGC | -4.97 ± 0.38 | -2.41 ± 0.2
CUAUAGCAAUAUUACGCACG | -0.606 ± 0.14 | -0.255 ± 0.23
CUAUAGCAAUAUUACGCCGU | -3.51 ± 0.29 | -2.6 ± 0.44
CUAUAGCAAUAUUACGCUGA | -2.84 ± 0.24 | -2.32 ± 0.29
CUAUAGCAAUAUUACGGCCU | -2.9 ± 0.38 | -1.78 ± 0.38
CUAUAGCAAUAUUACGGGCG | -0.345 ± 0.084 | -0.342 ± 0.098
CUAUAGCAAUAUUACGGUGU | -4.24 ± 0.27 | -1.93 ± 0.22
CUAUAGCAAUAUUACGUAUC | -5.21 ± 0.32 | -2.48 ± 0.14
CUAUAGCAAUAUUACGUCAU | -2.83 ± 0.33 | -3.05 ± 0.24

Sequence | self-splicing fitness (ln) (30 °C) | self-splicing fitness (ln) (37 °C)
CUAUAGCAAUAUUACGUCGG | -1.97 ± 0.2 | -1.33 ± 0.2
CUAUAGCAAUAUUACGUCUU | -4.3 ± 0.32 | -2.76 ± 0.23
CUAUAGCAAUAUUACGUGCC | -2.54 ± 0.32 | –
CUAUAGCAAUAUUACGUGUG | -1.04 ± 0.079 | -0.474 ± 0.096
CUAUAGCAAUAUUACGUUGU | -3.77 ± 0.19 | -3.85 ± 0.33
CUCAAGCAAUAUUACGAACA | -3.45 ± 0.44 | -0.994 ± 0.31
CUCAAGCAAUAUUACGACGA | -3.03 ± 0.23 | -1.35 ± 0.14
CUCAAGCAAUAUUACGAGGC | -3.51 ± 0.3 | -2.65 ± 0.27
CUCAAGCAAUAUUACGAGUC | -3.49 ± 0.21 | -3.23 ± 0.47
CUCAAGCAAUAUUACGCCAA | -3.55 ± 0.33 | -2.37 ± 0.31
CUCAAGCAAUAUUACGCCUA | -2.82 ± 0.27 | -2.16 ± 0.28
CUCAAGCAAUAUUACGCGAA | – | -1.79 ± 0.22
CUCAAGCAAUAUUACGCGGA | -3.12 ± 0.25 | -4.56 ± 0.31
CUCAAGCAAUAUUACGGAAU | -3.95 ± 0.26 | -2.67 ± 0.22
CUCAAGCAAUAUUACGGACU | -2.42 ± 0.15 | -1.36 ± 0.2
CUCAAGCAAUAUUACGGAGG | -1.53 ± 0.098 | -0.576 ± 0.087
CUCAAGCAAUAUUACGGAGU | -3.52 ± 0.17 | -3.04 ± 0.18
CUCAAGCAAUAUUACGGCAC | -2.74 ± 0.2 | -1.97 ± 0.28
CUCAAGCAAUAUUACGGCGG | -2.38 ± 0.092 | -1.65 ± 0.11
